As usually defined, the Kd is a measure of binding affinity in units of concentration.

This is an account of results in patent US20230375531A1 (MIT, published 2023).

Experiment [1] addresses SARS-CoV-2 nucleocapsid (N) protein, recombinant, residues 1-419 (SARS-CoV-2, UniProt P0DTC9 1-419).
Experiment [2] addresses T1, truncated C-terminal domain (CTD) of SARS-CoV-2 N protein (SARS-CoV-2, UniProt P0DTC9 247-364).
T1 construct: domain: C-terminal domain (CTD)
As to the kind of experiment: BLI, BA-MBP-Sso.E2 on streptavidin probes. On the technique in general: Biolayer interferometry detects binding as a change in optical thickness at a sensor tip.

Experiment [3] has as its target T2, truncated N-terminal domain (NTD) of SARS-CoV-2 N protein (SARS-CoV-2, UniProt P0DTC9 44-180).
T2 construct: domain: N-terminal domain (NTD)
As to the kind of experiment: BLI, BA-MBP-Sso.E1 on streptavidin probes.

B1: Sso.E2 (rcSso7d binder against SARS-CoV-2 N protein) (designed binder)
chain: MATVKFTYQGEEKQVDISKIKNVGRWGQIIDFDYDEGGGAIGIGAVSEKDAPKELLQMLEKQ
In the case of B1, the Kd in experiment [1] came to 4.2 nM.

B2: BA-MBP-Sso.E2 (Sso.E2 fused to biotin and maltose binding protein) (designed binder)
chain: MATVKFTYQGEEKQVDISKIKNVGRWGQIIDFDYDEGGGAIGIGAVSEKDAPKELLQMLEKQ
Regarding B2, the binding result in experiment [2] is listed as “no binding”.

B3: Sso.E1 (rcSso7d binder against SARS-CoV-2 N protein) (designed binder)
chain: MATVKFTYQGEEKQVDISKIKIVRRGGQWISFWYDEGGGAYGAGYVSEKDAPKELLQMLEKQ
On to B3, for which, in experiment [1], the Kd was 3.2 nM.

B4: BA-MBP-Sso.E1 (Sso.E1 fused to biotin and maltose binding protein) (designed binder, not shown: small tags and cut ends; large carriers)
chain: MATVKFTYQGEEKQVDISKIKIVRRGGQWISFWYDEGGGAYGAGYVSEKDAPKELLQMLEKQ
notes: also called reporter reagent
Regarding B4, in experiment [3], the binding result is on record as “no binding”.
